As usually defined, the Km is the substrate concentration at which the rate is half of its maximum. Usually kcat stands for the maximal rate divided by the concentration of active sites. Usually kcat/Km stands for the turnover number divided by the Michaelis constant.

Positions count from the first letter of the chain named. Numbers in names are those of the source.

B1: HepG (Trichoderma virens Gv29-8; A201L) (protein)
chain: MVPKVGINGFGRIGRVVLRNALETGAVEVVALNDPFIEPHYAEYMFKYDSTHGRFKGDIKVDGKDLVIDGKRIKFYQERDPANIPWKDSGAEYIVESTGVFTTTEKASAHFKGGAKKVIISAPSADAPMYVMGVNEDTYAGANVISNASCTTNCLAPLAKTLNDKFTIVEGLMTAIHAYTASQKTVDGPSSKDWRGGRAALQNLIPSSTGAAKAVGKVIPELAGKVTGMSVRVPTVNVSLVDFTVRFAKDVTYDEVKAAIKEASEGPLKGILAYTEDDIVSTDILTDPHSSTFDAKAGIALNKNFVKVMSWYDNEYGYSRRVVDLIVFVSKKDAGQ
B2: HepG (Trichoderma virens Gv29-8) (protein)
chain: B1 chain with L201A
B3: Tv-GAPDH (Trichoderma virens Gv29-8) (protein)
chain: MAPIKVGINGFGRIGRIVFRNAVEHPDIEVVAVNDPFIETTYAAYMLKYDSSHGLFKGDVEVDGKDLVVNGKKVRFYTERDPANIKWSETGADYIVESTGVFTTTEKAKAHLVGGAKKVIISAPSADAPMYVMGVNENDYNGSADVISNASCTTNCLAPLAKVINDNYGIVEGLMTTVHSYTATQKTVDGPSAKDWRGGRGAAQNIIPSSTGAAKAVGKVIPSLNGKLTGMSIRVPTANVSVVDLTVRLEKGATYAEITETIKKAADGPLKGVLAYTNDDVVSSDMLGNTNSSIFDIKAGISLNDNFVKLVSWYDNEWGYSRRVLDLLAHVAKVDASK

Substrate in the data set: O=C[C@H](O)COP(=O)(O)O
Briefly: purified protein. Type of data set: biochemical, Trichoderma virens. The settings on record: without HA.
As to B1, the Michaelis-Menten constant (Km) was found to be 260 ± 50 µM, the turnover number (kcat) worked out at 21.7 ± 3.33 s⁻¹ and the kcat/Km was 83300 M⁻¹ s⁻¹.
The corresponding values for B2 are 280 ± 50 µM, 41.7 ± 6.67 s⁻¹ and 148000 M⁻¹ s⁻¹.
On to B3, for which the Km is 1100 ± 200 µM, the catalytic constant (kcat) was 115 ± 21.7 s⁻¹ and the kcat/Km worked out at 105000 M⁻¹ s⁻¹.

Values taken from paper PMC8162069.
